# Data: patent US11098102B2, “Insulin conjugates” (SANOFI, priority 2018, dated 2021)
# How the values were obtained:
# [1] = target: T1, immobilized human serum albumin (Homo sapiens, UniProt P02768); experiment: Albumin binding: affinity chromatography on columns with immobilized human serum albumin (net retention time); details: isolated binders; HSA column 25° C., PBS pH 7.4/isopropanol gradient
# T1 construct: purchased Chiralpak (Chiraltech) 34712
# Method: In order to identify suitable binder molecules, which when bound to a peptide, such as an insulin, are able to improve the half-life in plasma and to prolong the profile of action, a system was established based on affinity chromatography with serum albumin columns, i.e. columns with immobilized serum albumin.
# The net retention time of the binders (samples) was calculated according to the following formula: Net retention time=RetTimeSample−RetTimet0 marker
# • Instrument: Waters Alliance 2795/Waters PDA 2996 or Waters H-Class UPLC equipped with a Waters Acquity photodiode-array detector • Software: Waters Empower 3 • Column: […]® HSA 50×4 mm; 5 μm Particle size • Chiraltech Order Numbers: HSA: 34712 • Eluent A: Phosphate Buffer saline (PBS) at pH=7.4 • Gibco PBS pH7.4 (10×) Phosphate Buffered Saline 500 ml; • Order Number: 70011-036 (500 ml) • Eluent B: Isopropanol • Fisher Order Number: A461-1 (10 • Gradient:
# • Column temperature: 25° C. • Flow rate: 1.0 ml/min • Detection: λ=220 nm • Injection volume: 20 μL • Sample Conc.: 1 mg/ml insulin solution in PBS for insulin samples • 5 μL of 10 mM DMSO stock solution (DMSO evaporated and re-dissolved in 200 μL i-propanol/water 1:1 v/v) for isolated binder samples (250 μM, 0.2 mg/ml at 800 Da MolWeight) • t0 marker Sodium Nitrate (NaNO3) solution in water, 0.05 mg/ml • Diluted from aqueous 1 mg/ml stock solution (Fluka Order Number: 74246-100ML) • Reported Value Net retention time of sample: RetTime Sample−RetTime t0 marker
# Affinity chromatography was carried out i) for insulin conjugates according to Examples 3.3 and 3.4 on a Waters Alliance Separation Module 2695 equipped with a Waters photodiode-array detector 2996 or Waters H-Class UPLC equipped with a Waters Acquity photodiode-array detector and ii) for isolated binders according to Example 2.11 on a Waters Alliance Separation Module 2795 equipped with a Waters photodiode-array detector 2996 or Waters H-Class UPLC equipped with a Waters Acquity photodiode-array detector.
# Columns with immobilized human serum albumin (50×4 mm; 5 μm particle size) were purchased from Chiralpak and used for separations.
# The columns with immobilized serum albumin were kept at 25° C. during the LC run, UV detection was carried out at 220 nm and injection volume was 20 μL.
# The net retention time of the samples was reported according to Net retention time=RetTime Sample−RetTime t0 marker
# [2] = target: T2, simulated gastric fluid (pepsin) (Sus scrofa, UniProt P00791); experiment: In vitro stability in simulated gastric fluid (Example 9); assay type: in vitro ADME, porcine; details: 37° C., 2 μM
# T2 construct: from tissue; host or cells: porcine stomach mucosa
# Method: Two grams of sodium chloride and 3.2 g of purified pepsin (from porcine stomach mucosa, with an activity of 800 to 2500 units per mg of protein) were dissolved in 7.0 ml of hydrochloric acid. The volume was adjusted with water up to 1000 ml.
# (§1) The stability determination was done using appropriate time points (for SIF and SGF 15, 30, 60, 120 and 240 minutes; for proteases 15, 30, 60 and 120 minutes). The incubation was done at 37° C. and the % of remaining parent compound was calculated in reference to a TO time point.
# (§2) For the determination of the parent compound an appropriate bioanalytical LC-MS/MS or LC-HRMS method was used, using the supernatant, after protein precipitation with ethanol (1 eq. v/v) and a centrifugation step.
# (§3) Compounds were dissolved in diluted hydrochloric acid at a final concentration of 40 μM. The compound concentration in the assay was 2 μM. A 1:20 dilution of the working solution was done into the protease buffer and samples are then incubated at 37° C., under stirring. At the appropriate time point and aliquot was taken, the reaction was quenched ethanol (1 eq. v/v), than centrifuged. The supernatant was analyzed.
# [3] = target: α-Chymotrypsin (Bos taurus, UniProt P00766); experiment: In vitro proteolytic stability against α-chymotrypsin (Example 9); assay type: in vitro ADME; details: 37° C., 2 μM
# Method: as §1, §2, §3
# [4] = target: Cathepsin D (Homo sapiens, UniProt P07339); experiment: In vitro proteolytic stability against cathepsin D (Example 9); assay type: in vitro ADME; details: 37° C., 2 μM
# Method: as §1, §2, §3
# [5] = target: Insulin degrading enzyme, IDE (Homo sapiens, UniProt P14735); experiment: In vitro proteolytic stability against insulin degrading enzyme (Example 9); assay type: in vitro ADME; details: 37° C., 2 μM
# Method: as §1, §2, §3
# [6] = target: T3, insulin receptor isoform B (IR-B) (Homo sapiens, UniProt P06213); experiment: Insulin receptor autophosphorylation assay (In-Cell Western, CHO cells, Example 8B); assay type: cell-based; set-up: expressed in transfected cells; host or cells: CHO cells; details: relative to human insulin
# [7] = target: T3, insulin receptor isoform B (IR-B); experiment: Insulin receptor binding affinity assay of insulin analogs (Example 8A, SPA competition binding); set-up: expressed in transfected cells; host or cells: CHO cells overexpressing the IR; isolated plasma membranes; details: relative to human insulin; a value of 0 means below the detection limit
# Method: Methods for determining the binding affinity of an insulin analog to an insulin receptor are well known in the art. […] The insulin receptor can be present in a membrane of a cell, e.g. of CHO (Chinese Hamster Ovary) cell, which overexpresses a recombinant insulin receptor. In an embodiment, the insulin receptor binding affinity is determined as described in the Examples section.
# Insulin receptor binding affinity for the analogs listed in Table 4 was determined as described in Hartmann et al. (Effect of the long-acting insulin analogs glargine and degludec on cardiomyocyte cell signaling and function. Cardiovasc Diabetol. 2016; 15:96). Isolation of insulin receptor embedded plasma membranes (M-IR) and competition binding experiments were performed as previously described (Sommerfeld et al., PLoS One. 2010; 5 (3): e9540). Briefly, CHO-cells overexpressing the IR were collected and re-suspended in ice-cold 2.25 STM buffer (2.25 M sucrose, 5 mM Tris-HCl pH 7.4, 5 mM MgCl2, complete protease inhibitor) and disrupted using a Dounce homogenizer followed by sonication. The homogenate was overlaid with 0.8 STM buffer (0.8 M sucrose, 5 mM Tris-HCl pH 7.4, 5 mM MgCl2, complete protease inhibitor) and ultra-centrifuged for 90 min at 100,000 g. Plasma membranes at the interface were collected and washed twice with phosphate buffered saline (PBS). The final pellet was re-suspended in dilution buffer (50 mM Tris-HCl pH 7.4, 5 mM MgCl2, complete protease inhibitor) and again homogenized with a Dounce homogenizer. Competition binding experiments were performed in a binding buffer (50 mM Tris-HCl, 150 mM NaCl, 0.1% BSA, complete protease inhibitor, adjusted to pH 7.8) in 96-well microplates. In each well 2 μg isolated membrane was incubated with 0.25 mg wheat germ agglutinin polyvinyltoluene polyethylenimine scintillation proximity assay (SPA) beads. […] The radioactivity was measured at equilibrium in a microplate scintillation counter (Wallac Microbeta, Freiburg, Germany).”
# T2 sequence (P00791 60-385): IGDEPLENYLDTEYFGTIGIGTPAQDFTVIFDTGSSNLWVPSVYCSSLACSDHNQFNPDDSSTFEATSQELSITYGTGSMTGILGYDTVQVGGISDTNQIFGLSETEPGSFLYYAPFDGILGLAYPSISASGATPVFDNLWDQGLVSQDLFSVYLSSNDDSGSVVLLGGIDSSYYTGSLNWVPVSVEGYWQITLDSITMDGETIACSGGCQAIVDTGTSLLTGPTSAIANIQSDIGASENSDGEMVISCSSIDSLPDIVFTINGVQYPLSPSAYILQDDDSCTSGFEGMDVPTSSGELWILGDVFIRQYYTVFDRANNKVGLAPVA
# T3 sequence (P06213 28-758 limits assumed): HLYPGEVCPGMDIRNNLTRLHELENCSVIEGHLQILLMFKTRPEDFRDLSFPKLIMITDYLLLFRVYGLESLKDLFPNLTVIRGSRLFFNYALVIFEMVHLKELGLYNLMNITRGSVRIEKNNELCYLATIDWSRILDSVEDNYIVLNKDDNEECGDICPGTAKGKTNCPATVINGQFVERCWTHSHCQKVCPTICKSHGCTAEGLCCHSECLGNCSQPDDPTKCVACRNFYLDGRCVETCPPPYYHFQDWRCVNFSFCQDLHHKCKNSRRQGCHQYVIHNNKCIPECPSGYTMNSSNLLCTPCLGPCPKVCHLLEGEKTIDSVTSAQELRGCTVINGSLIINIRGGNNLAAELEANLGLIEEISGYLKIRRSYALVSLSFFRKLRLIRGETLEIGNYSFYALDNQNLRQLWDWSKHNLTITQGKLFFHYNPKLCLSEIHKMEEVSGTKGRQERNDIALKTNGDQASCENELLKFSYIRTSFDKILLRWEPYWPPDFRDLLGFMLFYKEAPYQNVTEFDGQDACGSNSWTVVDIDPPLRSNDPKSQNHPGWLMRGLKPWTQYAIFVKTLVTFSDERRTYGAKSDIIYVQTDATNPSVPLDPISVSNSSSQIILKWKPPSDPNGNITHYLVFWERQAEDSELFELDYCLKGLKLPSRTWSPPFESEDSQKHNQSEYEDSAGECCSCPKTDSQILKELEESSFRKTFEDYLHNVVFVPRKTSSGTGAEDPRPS
# T3 sequence (P06213 763-1382 limits assumed): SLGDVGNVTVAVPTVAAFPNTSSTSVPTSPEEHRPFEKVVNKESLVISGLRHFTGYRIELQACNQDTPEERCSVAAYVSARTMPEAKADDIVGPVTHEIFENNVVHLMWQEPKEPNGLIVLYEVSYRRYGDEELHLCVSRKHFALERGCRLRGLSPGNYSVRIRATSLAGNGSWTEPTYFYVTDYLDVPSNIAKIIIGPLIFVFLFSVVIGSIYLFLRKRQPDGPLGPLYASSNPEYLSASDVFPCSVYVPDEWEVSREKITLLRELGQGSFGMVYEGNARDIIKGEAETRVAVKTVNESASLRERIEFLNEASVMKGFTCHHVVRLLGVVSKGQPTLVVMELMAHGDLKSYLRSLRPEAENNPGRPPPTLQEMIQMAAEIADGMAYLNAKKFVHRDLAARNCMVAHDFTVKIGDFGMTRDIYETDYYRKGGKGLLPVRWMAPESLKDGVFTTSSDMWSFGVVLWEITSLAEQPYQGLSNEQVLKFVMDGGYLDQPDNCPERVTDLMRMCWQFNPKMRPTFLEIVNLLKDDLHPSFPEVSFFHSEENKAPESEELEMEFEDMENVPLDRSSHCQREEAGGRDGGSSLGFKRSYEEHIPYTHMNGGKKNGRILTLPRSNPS
# T1 sequence (P02768 25-609): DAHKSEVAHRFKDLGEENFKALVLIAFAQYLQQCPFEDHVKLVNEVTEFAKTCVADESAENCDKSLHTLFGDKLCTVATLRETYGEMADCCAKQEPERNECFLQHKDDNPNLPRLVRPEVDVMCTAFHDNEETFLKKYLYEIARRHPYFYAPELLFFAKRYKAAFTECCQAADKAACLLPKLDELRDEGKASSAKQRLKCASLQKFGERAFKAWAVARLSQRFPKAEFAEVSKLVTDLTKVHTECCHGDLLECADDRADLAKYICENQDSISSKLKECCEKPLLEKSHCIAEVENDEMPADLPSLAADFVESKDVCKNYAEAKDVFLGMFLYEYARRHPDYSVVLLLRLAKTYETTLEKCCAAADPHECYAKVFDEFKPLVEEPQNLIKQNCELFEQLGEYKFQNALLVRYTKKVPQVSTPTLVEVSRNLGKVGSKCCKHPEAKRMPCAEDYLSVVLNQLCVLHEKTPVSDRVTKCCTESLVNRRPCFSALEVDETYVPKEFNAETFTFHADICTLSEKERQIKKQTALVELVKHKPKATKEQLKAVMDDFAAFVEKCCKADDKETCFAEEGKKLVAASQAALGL
# Chain of Cathepsin D (P07339 65-412, species assumed): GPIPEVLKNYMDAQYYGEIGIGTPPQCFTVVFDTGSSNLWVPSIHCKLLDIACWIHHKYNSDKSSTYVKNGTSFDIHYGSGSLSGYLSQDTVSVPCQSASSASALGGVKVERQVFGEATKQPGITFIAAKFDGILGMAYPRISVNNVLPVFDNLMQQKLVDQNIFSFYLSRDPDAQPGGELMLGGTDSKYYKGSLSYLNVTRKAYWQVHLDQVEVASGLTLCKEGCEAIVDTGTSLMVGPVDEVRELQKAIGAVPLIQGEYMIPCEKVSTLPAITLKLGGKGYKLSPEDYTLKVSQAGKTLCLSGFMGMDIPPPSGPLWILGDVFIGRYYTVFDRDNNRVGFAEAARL
Compound,NRT [min] (net retention time on columns with immobilized human serum albumin) [1],"Percent remaining insulin analog, Gastric fluid (30 minutes) [2] [%]","Percent remaining insulin analog, α-Chymotrypsin (120 minutes) [3] [%]","Percent remaining insulin analog, Cathepsin D (30 minutes) [4] [%]","Percent remaining insulin analog, Insulin degrading enzyme, IDE (30 minutes) [5] [%]",autophosphorylation activity [6],Insulin-receptor binding affinity [7]
O=C(O)CCCCCCCCCCCc1cc(Oc2ccc(S(=O)(=O)Nc3ccc(C(=O)NCCOCCOCC(=O)NCCOCCOCC(=O)O)cn3)cc2)ccc1F [Binder 24],15.76,52,40,59,86,0.04,0.01
O=C(O)CCCCCCCCCCCCCCCOc1ccc(S(=O)(=O)Nc2ncc(C(=O)NCCOCCOCC(=O)NCCOCCOCC(=O)O)cn2)cc1F [Binder 38],13.53,36,34,62,86,0.03,0
O=C(O)CCCCCCCCCCCCCCOc1ccc(S(=O)(=O)Nc2ccc(C(=O)NCCOCCOCC(=O)NCCOCCOCC(=O)O)cn2)cc1 [Binder 7],14.65,30,58,52,2,0.2,0.05
O=C(O)CCCCCCCCCCCCCc1cc(Oc2ccc(S(=O)(=O)Nc3ccc(C(=O)NCCOCCOCC(=O)NCCOCCOCC(=O)O)cn3)cc2)ccc1F [Binder 22],15.55,52,99,20,77,0.04,0.01
O=C(O)CCCCCCCCCCCCCc1ccc(CCOc2ccc(S(=O)(=O)Nc3ncc(C(=O)NCCOCCOCC(=O)NCCOCCOCC(=O)O)cn3)cc2)cc1 [Binder 12],14.95,44,31,43,11,0.06,0.01
O=C(O)CCCCCCCCCc1ccc(OCc2ccc(S(=O)(=O)Nc3ccc(C(=O)NCCOCCOCC(=O)NCCOCCOCC(=O)O)cc3)cc2)cc1 [Binder 2],17.88,0,35,0,81,0.87,1.05
